Assay results taken from US20210269549A1, “ANTI-SAS1B ANTIBODIES, ASSOCIATED METHODS OF USE, AND COMPOSITIONS AND METHODS FOR DETECTING AND TREATING CANCER” (UNIVERSITY OF VIRGINIA PATENT FOUNDATION, priority 2015, published 2021).
Substitutions are numbered along the chain they refer to.

Key:
[1] = test system: uterine cancer cell line (MMMT539); assay: Morphology of uterine cancer cells after 93 h of anti-SAS1B antibody drug treatment; type: cell-based, human; details: 0.1 nM mAb with 15 nM Fab-DMDM
Experimental: The morphology of uterine cancer cell line (SNU539) and uterine cancer cell line (MMMT539) after 93 h of anti-SAS1B antibody drug treatment were examined.

[2] = test system: renal carcinoma cells; assay: ADC assay on renal carcinoma cells; type: cell-based; details: 15 nM Fab-DMDM, 4 days
Experimental: The cytotoxic effect of anti-EGFR (AY13), anti-SAS1B (SB2) and anti-CABYR (3A4) monoclonal antibodies on renal carcinoma cells were tested by ADC assay. An average of 3 experiments in triplicate is reported.

[3] = test system: SAS1B+ tumor cell lines; assay: Confocal immunofluorescence microscopy on live cells (FIG. 25); type: cell-based
Source text: Bioassays to select therapeutic and diagnostic mAbs have focused on two strategies: 1) identification of mAbs reactive with recombinant SAS1B, endogenous SAS1B, and with SAS1B accessible on cell surfaces; and 2) mAbs that recognize epitopes preserved in formalin fixed paraffin embedded sections that work as immuno-cytochemical probes. […] These transfected cells provide one effective screening tool to identify mAbs reactive with native epitopes on SAS1B. Another screening assay is to study SAS1B+ tumor cell lines by immunofluorescence microscopy and FACS. mAbs that recognize SAS1B at the surface of live cells and gate specific cell populations by FACS have been isolated. […] Efforts to identify mAbs that localize SAS1B in fixed embedded sections have also yielded reagents of utility for histopathology. […] Thus the non-human primate ovary can be used as a positive control tissue for studying the histopathology of tumor specimens with these reagents.

[4] = test system: human uterine cancer cells (MMMT539); assay: Antibody drug conjugate cytotoxicity (ADC) assay, MMMT539; type: cell-based; details: 0.1 nM mAb, Fab-DMDM constant at 15 nM, ~90 h
Experimental: The cytotoxic effect of anti-human SAS1B mAbs SB2 and SB5 on human uterine cancer cells (MMMT539) was examined by antibody drug conjugate cytotoxicity (ADC) assay. Human uterine cancer cells MMMT539 were seeded in triplicate on 96 well plate overnight and then treated with SB2 or SB5 and anti-mouse Fab-cleavable-Duocarmycin complex for ˜90 h. The presence of viable live cells per well was measured by total cellular ATP content in relative luminescence unit (RLU). Viability of control live cells (100%) was determined from average of 9 wells in terms of total cellular ATP (in RLU) containing the constant 15 nM Fab-CL-DMDM for each set of antibody/reagent. […] Staurosporine, a general protein kinase inhibitor, was used to induce apoptosis in 1% DMSO as a positive control for the assay.

[5] = test system: human pancreatic cancer cell MPanc96; assay: ADC cytotoxicity assay (total cellular ATP), MPanc96; type: cell-based; details: 0.1 nM mAb, Fab-DMDM constant at 15 nM, ~72 hours
Experimental: The cytotoxic effect of anti-human SAS1B mAbs SB2, SB4, SB5 on human pancreatic cancer cell MPanc96 was determined by ADC assay. Human pancreatic cancer cells MPanc96 were seeded in triplicate on 96 well plates (1100 cells per well) overnight and then treated with SB2, SB4, SB5, and […] (anti-CABYR) and anti-mouse Fab-cleavable-Duocarmycin complex for ˜72 hours. The presence of viable live cells per well was measured by total cellular ATP content in relative luminescence unit (RLU). […] The anti-SAS1B mAbs SB2, SB4, and SB5 killed 80%, 64%, 57% of cells, respectively, at 1 nM concentration when Fab-DMDM was kept constant at 15 nM for all primary antibody dilutions. SB2 killed 67% of cells at 0.1 nM concentration. […] Staurosporine, a general protein kinase inhibitor, which induces apoptosis, was used as a positive control and DMSO was used as a negative control. The data are shown in FIG. 7A-B and represent an average of triplicate experiments.

[6] = test system: PDAC cell line known as 366; assay: Live indirect immunofluorescence cell surface staining, 366; type: cell-based, human; details: for Cells staining for cell surface SAS1B: 366, primary antibody 20 ug/mL; for Recognition of cell surface SAS1B: live 366 cells, primary antibodies 20 ug/mL
Experimental: Live MPanc96 cells (pancreatic ductal adenocarcinoma cell line) were incubated with different anti-SAS1B monoclonal antibodies (as well as DAPI stain) for nucleus localization. Cells were fixed and permeabilized after primary and secondary antibody incubation thus fluorescence staining observed represents surface localized SAS1B. Monoclonal antibodies SB4 and SB5 were used, as well as normal rabbit or mouse IgG's as a negative control. All primary antibodies were used at a concentration of 20 ug/mL.
The live indirect immunofluorescence protocol is as follows. The cells were dissociated with Acutase and plated on fibronectin coated coverslips. MPanc96 cells were allowed to grow 2-3 days and 366 cells were allowed to grow for 3-4 days. The cells were blocked (blocking 1 solution) with 5% NGS in media for 30 min at RT and then blocked with 5% NGS in chilled media+0.1% sodium azide (blocking 2 solution) for 30 min on ice. The primary antibody (SB4, SB5 or control) was added at 20 ug/mL in blocking 2 solution for 2 hours on ice at 4° C. The cells were washed 3× for 5 minutes each on ice. The secondary antibody (goat anti-Ms/Rb Alexa488 (1:500)) was added in blocking 2 solution for 1 hour in dark on ice at 4° C. The cells were washed 3× for 5 min each on ice and then were fixed with 4% PFA-PBS for 15 min in the dark at RT. The cells were washed 2× for 5 min each at RT and then stained with DAPI stain (1:1000) for 10 min at RT. The cells were washed 2× for 5 min each at RT and then were treated with prolong gold antifade. […] About 10-20% of the SB5 treated cells stained for SASB1.

[7] = biological target: T1, mouse SAS1B (Mus musculus, UniProt Q6HA09); assay: Western blot of mouse SAS1B probed with anti-human SAS1B murine mAbs; type: binding; details: Table 1
T1 sequence (Q6HA09 24-435): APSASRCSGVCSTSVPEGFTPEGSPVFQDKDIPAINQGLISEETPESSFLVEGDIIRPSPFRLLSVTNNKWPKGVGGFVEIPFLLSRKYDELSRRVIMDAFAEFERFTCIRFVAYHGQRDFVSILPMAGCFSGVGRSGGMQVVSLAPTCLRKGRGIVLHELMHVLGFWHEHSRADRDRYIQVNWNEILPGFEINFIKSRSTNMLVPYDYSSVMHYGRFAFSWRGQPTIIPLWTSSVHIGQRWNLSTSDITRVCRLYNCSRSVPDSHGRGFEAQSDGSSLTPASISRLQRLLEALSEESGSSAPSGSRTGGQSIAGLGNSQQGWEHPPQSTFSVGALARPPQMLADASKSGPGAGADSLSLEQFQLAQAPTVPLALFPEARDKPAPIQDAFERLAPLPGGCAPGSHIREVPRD
Source text: A western blot of human SAS1B and mouse SAS1B was probed with anti-human SAS1B murine monoclonal antibodies SB1, SB2, SB3, SB4, SB5, SB6, and SB7.

B1: SB2: mouse anti-human SAS1B monoclonal antibody, IgG2b; VH SEQ ID NO:14, VL SEQ ID NO:15 (antibody, listed as Mus musculus, V domains shown)
VH: EVQLQQSGPELVKPGSSVKISCKASGYTFTDYNMVWVKQSHGKSLEWIGAVNPNNGGTSYNQKFKGKATLTVDKSSSTAYMELRSLTSEDSAVYYCVPNWDWFAYWGQGTLVTVSA
VL: DVLMTQTPLSLPVSLGDQASISCRSSQSLVHSNGNTYLEWYLQKPGQSPNLLIYKVSNRFSGVPDRFSGSGSGTDFTLKISRVEAEDLGVYYCFQGSHVPFTFGSGTKLEIK
[1]
  Cell killing and inhibition of cell proliferation (morphology): clear cell killing and inhibition of cell proliferation
[2]
  Cytotoxic effect: cytotoxic effect at 0.01, 0.1 nM and higher concentrations
[3]
  Binding of SAS1B on live cells: bind SAS1B on live cells
[4]
  Cancer cells killed: 87%
[5]
  Cells killed: 67%

B2: SB4: mouse anti-human SAS1B monoclonal antibody, IgG2a; VH SEQ ID NO:16, VL SEQ ID NO:17 (antibody, listed as Mus musculus, V domains shown)
VH: B1 VH with A24P, V37M, V51I, S59T, V97A
VL: B1 VL with L29I, V30L, N50K
[6]
  Cells staining for cell surface SAS1B: 65-80%
  Recognition of cell surface SAS1B: recognize cell surface SAS1B in pancreatic cancer cell lines

B3: SB5: mouse anti-human SAS1B monoclonal antibody, IgG2b; VH SEQ ID NO:16, VL SEQ ID NO:18 (antibody, listed as Mus musculus, V domains shown)
VH: B1 VH with A24P, V37M, V51I, S59T, V97A
VL: B1 VL with T7I, L29I, V30L, N50K
[6]
  Cells staining for cell surface SAS1B: 10-20%
  Recognition of cell surface SAS1B: recognize cell surface SAS1B in pancreatic cancer cell lines
[1]
  Cell killing and inhibition of cell proliferation (morphology): clear cell killing and inhibition of cell proliferation
[4]
  Cancer cells killed: 75%

B4: SB1: mouse anti-SAS1B monoclonal antibody, IgG2a; VH SEQ ID NO:12, VL SEQ ID NO:13 (antibody, listed as Mus musculus, V domains shown)
VH: EVQLQQSGPELVKPGSSVKISCKASGYTFTDYNMDWVKQSHGKSLEWIGAINPNNGGTSYNQKFKGKATLTVDKSSSTAYMELRSLTSEDSAVYYCATNEYWGQGTTLTVSS
VL: NIVMTQSPKSMSMSVGERVTLSCKASENVGTYVSWYQQKPEQSPKLLIYGASNRYTGVPDRFTGSGSATDFTLTISSVQAEDLADYHCGQSYSYPWTFGGGTKLEIK
[7]
  Specifically binds mouse and human SAS1B: Yes
